From US20110118131A1 (published 2011) come the findings set out here.

To fix the notation:
T1: Ep-CAM (UniProt P16422 24-265, limits assumed)
T1 construct: Antigen of the Biacore analysis of ING-1 variants
T1 sequence (looked up): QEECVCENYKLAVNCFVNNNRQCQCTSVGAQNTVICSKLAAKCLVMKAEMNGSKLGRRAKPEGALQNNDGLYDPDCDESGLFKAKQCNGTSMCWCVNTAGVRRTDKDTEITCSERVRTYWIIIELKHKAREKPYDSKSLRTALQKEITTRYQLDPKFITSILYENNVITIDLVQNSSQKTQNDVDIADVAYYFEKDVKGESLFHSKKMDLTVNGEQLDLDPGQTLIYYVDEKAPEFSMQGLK

B1: ING-1 heavy chain N52H (Fab, V domains shown)
VH: QIQLVQSGPELKKPGETVKISCKASGYTFTKYGMNWVKQAPGKGLKWMGWIHTYTEEPTYGDDFKGRFAFSLETSASTANLQINNLKSEDTATYFCARFGSAVDYWGQGTSVTVSS
VL: DIVMTQAAFSNPVTLGTSGSISCRSSKSLLHSNGITYLYWYLQKPGQSPQLLIYQMSNLASGVPDRFSSSGSGTDFTLRISRVEAEDVGVYYCAQNLELPRTFGGGTKLEMKR
B2: ING-1 heavy chain T28Q (Fab, V domains shown)
VH: QIQLVQSGPELKKPGETVKISCKASGYQFTKYGMNWVKQAPGKGLKWMGWINTYTEEPTYGDDFKGRFAFSLETSASTANLQINNLKSEDTATYFCARFGSAVDYWGQGTSVTVSS
VL: DIVMTQAAFSNPVTLGTSGSISCRSSKSLLHSNGITYLYWYLQKPGQSPQLLIYQMSNLASGVPDRFSSSGSGTDFTLRISRVEAEDVGVYYCAQNLELPRTFGGGTKLEMKR
B3: ING-1 heavy chain T53F (Fab, V domains shown)
VH: QIQLVQSGPELKKPGETVKISCKASGYTFTKYGMNWVKQAPGKGLKWMGWINFYTEEPTYGDDFKGRFAFSLETSASTANLQINNLKSEDTATYFCARFGSAVDYWGQGTSVTVSS
VL: DIVMTQAAFSNPVTLGTSGSISCRSSKSLLHSNGITYLYWYLQKPGQSPQLLIYQMSNLASGVPDRFSSSGSGTDFTLRISRVEAEDVGVYYCAQNLELPRTFGGGTKLEMKR
B4: ING-1 heavy chain T53H (Fab, V domains shown)
VH: QIQLVQSGPELKKPGETVKISCKASGYTFTKYGMNWVKQAPGKGLKWMGWINHYTEEPTYGDDFKGRFAFSLETSASTANLQINNLKSEDTATYFCARFGSAVDYWGQGTSVTVSS
VL: DIVMTQAAFSNPVTLGTSGSISCRSSKSLLHSNGITYLYWYLQKPGQSPQLLIYQMSNLASGVPDRFSSSGSGTDFTLRISRVEAEDVGVYYCAQNLELPRTFGGGTKLEMKR
B5: ING-1 heavy chain N52Y (Fab, V domains shown)
VH: QIQLVQSGPELKKPGETVKISCKASGYTFTKYGMNWVKQAPGKGLKWMGWIYTYTEEPTYGDDFKGRFAFSLETSASTANLQINNLKSEDTATYFCARFGSAVDYWGQGTSVTVSS
VL: DIVMTQAAFSNPVTLGTSGSISCRSSKSLLHSNGITYLYWYLQKPGQSPQLLIYQMSNLASGVPDRFSSSGSGTDFTLRISRVEAEDVGVYYCAQNLELPRTFGGGTKLEMKR
B6: ING-1 heavy chain T53N (Fab, V domains shown)
VH: QIQLVQSGPELKKPGETVKISCKASGYTFTKYGMNWVKQAPGKGLKWMGWINNYTEEPTYGDDFKGRFAFSLETSASTANLQINNLKSEDTATYFCARFGSAVDYWGQGTSVTVSS
VL: DIVMTQAAFSNPVTLGTSGSISCRSSKSLLHSNGITYLYWYLQKPGQSPQLLIYQMSNLASGVPDRFSSSGSGTDFTLRISRVEAEDVGVYYCAQNLELPRTFGGGTKLEMKR
B7: ING-1 heavy chain N52K (Fab, V domains shown)
VH: QIQLVQSGPELKKPGETVKISCKASGYTFTKYGMNWVKQAPGKGLKWMGWIKTYTEEPTYGDDFKGRFAFSLETSASTANLQINNLKSEDTATYFCARFGSAVDYWGQGTSVTVSS
VL: DIVMTQAAFSNPVTLGTSGSISCRSSKSLLHSNGITYLYWYLQKPGQSPQLLIYQMSNLASGVPDRFSSSGSGTDFTLRISRVEAEDVGVYYCAQNLELPRTFGGGTKLEMKR
B8: ING-1 heavy chain N52W (Fab, V domains shown)
VH: QIQLVQSGPELKKPGETVKISCKASGYTFTKYGMNWVKQAPGKGLKWMGWIWTYTEEPTYGDDFKGRFAFSLETSASTANLQINNLKSEDTATYFCARFGSAVDYWGQGTSVTVSS
VL: DIVMTQAAFSNPVTLGTSGSISCRSSKSLLHSNGITYLYWYLQKPGQSPQLLIYQMSNLASGVPDRFSSSGSGTDFTLRISRVEAEDVGVYYCAQNLELPRTFGGGTKLEMKR
B9: ING-1 heavy chain N52R (Fab, V domains shown)
VH: QIQLVQSGPELKKPGETVKISCKASGYTFTKYGMNWVKQAPGKGLKWMGWIRTYTEEPTYGDDFKGRFAFSLETSASTANLQINNLKSEDTATYFCARFGSAVDYWGQGTSVTVSS
VL: DIVMTQAAFSNPVTLGTSGSISCRSSKSLLHSNGITYLYWYLQKPGQSPQLLIYQMSNLASGVPDRFSSSGSGTDFTLRISRVEAEDVGVYYCAQNLELPRTFGGGTKLEMKR
B10: ING-1 heavy chain T30Y (Fab, V domains shown)
VH: QIQLVQSGPELKKPGETVKISCKASGYTFYKYGMNWVKQAPGKGLKWMGWINTYTEEPTYGDDFKGRFAFSLETSASTANLQINNLKSEDTATYFCARFGSAVDYWGQGTSVTVSS
VL: DIVMTQAAFSNPVTLGTSGSISCRSSKSLLHSNGITYLYWYLQKPGQSPQLLIYQMSNLASGVPDRFSSSGSGTDFTLRISRVEAEDVGVYYCAQNLELPRTFGGGTKLEMKR
B11: ING-1 heavy chain N52Q (Fab, V domains shown)
VH: QIQLVQSGPELKKPGETVKISCKASGYTFTKYGMNWVKQAPGKGLKWMGWIQTYTEEPTYGDDFKGRFAFSLETSASTANLQINNLKSEDTATYFCARFGSAVDYWGQGTSVTVSS
VL: DIVMTQAAFSNPVTLGTSGSISCRSSKSLLHSNGITYLYWYLQKPGQSPQLLIYQMSNLASGVPDRFSSSGSGTDFTLRISRVEAEDVGVYYCAQNLELPRTFGGGTKLEMKR
B12: ING-1 heavy chain T53Q (Fab, V domains shown)
VH: QIQLVQSGPELKKPGETVKISCKASGYTFTKYGMNWVKQAPGKGLKWMGWINQYTEEPTYGDDFKGRFAFSLETSASTANLQINNLKSEDTATYFCARFGSAVDYWGQGTSVTVSS
VL: DIVMTQAAFSNPVTLGTSGSISCRSSKSLLHSNGITYLYWYLQKPGQSPQLLIYQMSNLASGVPDRFSSSGSGTDFTLRISRVEAEDVGVYYCAQNLELPRTFGGGTKLEMKR
B13: ING-1 heavy chain T30G (Fab, V domains shown)
VH: QIQLVQSGPELKKPGETVKISCKASGYTFGKYGMNWVKQAPGKGLKWMGWINTYTEEPTYGDDFKGRFAFSLETSASTANLQINNLKSEDTATYFCARFGSAVDYWGQGTSVTVSS
VL: DIVMTQAAFSNPVTLGTSGSISCRSSKSLLHSNGITYLYWYLQKPGQSPQLLIYQMSNLASGVPDRFSSSGSGTDFTLRISRVEAEDVGVYYCAQNLELPRTFGGGTKLEMKR
B14: ING-1 heavy chain T53W (Fab, V domains shown)
VH: QIQLVQSGPELKKPGETVKISCKASGYTFTKYGMNWVKQAPGKGLKWMGWINWYTEEPTYGDDFKGRFAFSLETSASTANLQINNLKSEDTATYFCARFGSAVDYWGQGTSVTVSS
VL: DIVMTQAAFSNPVTLGTSGSISCRSSKSLLHSNGITYLYWYLQKPGQSPQLLIYQMSNLASGVPDRFSSSGSGTDFTLRISRVEAEDVGVYYCAQNLELPRTFGGGTKLEMKR
B15: ING-1 heavy chain T53D (Fab, V domains shown)
VH: QIQLVQSGPELKKPGETVKISCKASGYTFTKYGMNWVKQAPGKGLKWMGWINDYTEEPTYGDDFKGRFAFSLETSASTANLQINNLKSEDTATYFCARFGSAVDYWGQGTSVTVSS
VL: DIVMTQAAFSNPVTLGTSGSISCRSSKSLLHSNGITYLYWYLQKPGQSPQLLIYQMSNLASGVPDRFSSSGSGTDFTLRISRVEAEDVGVYYCAQNLELPRTFGGGTKLEMKR
B16: ING-1 heavy chain T53Y (Fab, V domains shown)
VH: QIQLVQSGPELKKPGETVKISCKASGYTFTKYGMNWVKQAPGKGLKWMGWINYYTEEPTYGDDFKGRFAFSLETSASTANLQINNLKSEDTATYFCARFGSAVDYWGQGTSVTVSS
VL: DIVMTQAAFSNPVTLGTSGSISCRSSKSLLHSNGITYLYWYLQKPGQSPQLLIYQMSNLASGVPDRFSSSGSGTDFTLRISRVEAEDVGVYYCAQNLELPRTFGGGTKLEMKR
B17: ING-1 heavy chain P58N (Fab, V domains shown)
VH: QIQLVQSGPELKKPGETVKISCKASGYTFTKYGMNWVKQAPGKGLKWMGWINTYTEENTYGDDFKGRFAFSLETSASTANLQINNLKSEDTATYFCARFGSAVDYWGQGTSVTVSS
VL: DIVMTQAAFSNPVTLGTSGSISCRSSKSLLHSNGITYLYWYLQKPGQSPQLLIYQMSNLASGVPDRFSSSGSGTDFTLRISRVEAEDVGVYYCAQNLELPRTFGGGTKLEMKR
B18: ING-1 heavy chain T53E (Fab, V domains shown)
VH: QIQLVQSGPELKKPGETVKISCKASGYTFTKYGMNWVKQAPGKGLKWMGWINEYTEEPTYGDDFKGRFAFSLETSASTANLQINNLKSEDTATYFCARFGSAVDYWGQGTSVTVSS
VL: DIVMTQAAFSNPVTLGTSGSISCRSSKSLLHSNGITYLYWYLQKPGQSPQLLIYQMSNLASGVPDRFSSSGSGTDFTLRISRVEAEDVGVYYCAQNLELPRTFGGGTKLEMKR
B19: ING-1 heavy chain T53R (Fab, V domains shown)
VH: QIQLVQSGPELKKPGETVKISCKASGYTFTKYGMNWVKQAPGKGLKWMGWINRYTEEPTYGDDFKGRFAFSLETSASTANLQINNLKSEDTATYFCARFGSAVDYWGQGTSVTVSS
VL: DIVMTQAAFSNPVTLGTSGSISCRSSKSLLHSNGITYLYWYLQKPGQSPQLLIYQMSNLASGVPDRFSSSGSGTDFTLRISRVEAEDVGVYYCAQNLELPRTFGGGTKLEMKR
B20: ING-1 heavy chain N52S (Fab, V domains shown)
VH: QIQLVQSGPELKKPGETVKISCKASGYTFTKYGMNWVKQAPGKGLKWMGWISTYTEEPTYGDDFKGRFAFSLETSASTANLQINNLKSEDTATYFCARFGSAVDYWGQGTSVTVSS
VL: DIVMTQAAFSNPVTLGTSGSISCRSSKSLLHSNGITYLYWYLQKPGQSPQLLIYQMSNLASGVPDRFSSSGSGTDFTLRISRVEAEDVGVYYCAQNLELPRTFGGGTKLEMKR

In this assay the target is T1, Ep-CAM. The assay can be described thus: Biacore, Fab periplasmic extract. Background: SPR reads the build-up and loss of mass on a sensor chip optically.
As to B1, the “fold difference in affinity vs original” value is 0.02 fold.
In the case of B2, the binding result was “no binding”.
With B3, the binding result is given as “no binding”.
The same measure, in the same setting: the result for B4 reads “no binding”.
The same measure, in the same setting: the result for B5 reads “no binding”; that for B6, “no binding”; that for B7, “no binding”.
On the same count and under the same terms, the entry for B8 is “no binding”; for B9 it is “no binding”.
On to B10, for which the “fold difference in affinity vs original” value is 2 fold.
For the molecule B11, the binding result was “no binding”.
Same read-out and setting: the entry for B12 is “no binding”; for B13 it is “no binding”.
On the same count and under the same terms, the result for B14 reads “no binding”; that for B15, “no binding”.
Same read-out and setting: the entry for B16 is “no binding”.
For the molecule B17, the “fold difference in affinity vs original” value turned out to be 0.9 fold.
With B18, the binding result is “no binding”.
Still for that read-out and setting: the result for B19 reads “no binding”; that for B20, “no binding”.
